From patent US20260176675 come the findings set out here.

The target in the data set is Eosinophil peroxidase (EPX) (Homo sapiens) (UniProt P11678+P11678). Description: cleavage_in_vitro. To be noted: 30 min.
Chain of Eosinophil peroxidase (EPX) (Homo sapiens) (P11678 140-250, chain 1 of 2): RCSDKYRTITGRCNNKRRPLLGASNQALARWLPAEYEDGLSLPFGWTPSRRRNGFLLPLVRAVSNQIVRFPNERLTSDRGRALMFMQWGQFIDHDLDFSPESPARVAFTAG
Chain of Eosinophil peroxidase (EPX) (Homo sapiens) (P11678 251-715, chain 2 of 2): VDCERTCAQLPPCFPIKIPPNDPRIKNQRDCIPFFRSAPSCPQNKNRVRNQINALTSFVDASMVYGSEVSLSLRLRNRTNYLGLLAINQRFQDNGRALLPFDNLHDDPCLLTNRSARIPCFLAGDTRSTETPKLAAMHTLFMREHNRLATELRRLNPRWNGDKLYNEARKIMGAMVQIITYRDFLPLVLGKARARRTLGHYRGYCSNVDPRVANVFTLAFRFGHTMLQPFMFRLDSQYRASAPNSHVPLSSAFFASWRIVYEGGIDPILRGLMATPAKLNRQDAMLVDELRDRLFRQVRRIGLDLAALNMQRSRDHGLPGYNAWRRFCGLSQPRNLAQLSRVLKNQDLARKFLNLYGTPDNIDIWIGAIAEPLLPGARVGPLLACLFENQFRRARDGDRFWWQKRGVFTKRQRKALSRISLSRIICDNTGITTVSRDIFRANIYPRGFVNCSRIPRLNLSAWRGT

Regarding “CTATGAACTGACTATGACCTCACTACCAAGATGCCATCCTACCAACGGTCGATGGATGAGTAATACAGGCCGGATGGGTACAGTCG [EPDz20M4 ligated to FS (FS-EPDz20M4)]”, where the note is “single riboadenosine cleavage site in FS flanked by dabcyl-dT (5') and fluorescein-dT (3') [13 dabcyl-dT, 14 riboadenosine (R), 15 fluorescein-dT], 50 nM EPX, selection buffer with 15 mM MgCl2, RT”, the activity stood at 18 % cleavage. Further, under “single riboadenosine cleavage site in FS flanked by dabcyl-dT (5') and fluorescein-dT (3') [13 dabcyl-dT, 14 riboadenosine (R), 15 fluorescein-dT], apparent Kd = EPX concentration giving 50% of maximum cleavage, 50 mM HEPES pH 7.5, 150 mM NaCl, 15 mM MgCl2, 0.01% Tween20, RT”, the Kd is 30 nM.

For “CTATGAACTGACTATGACCTCACTACCAAGATGCCATCCTACCAACGGTCGATGGATGAGTAATACAGGCCGGATGGGTACAGTCGTAATCTATTCGAGCTCTGAACTCG [EPDz20 ligated to FS]”, the activity (single riboadenosine cleavage site in FS flanked by dabcyl-dT (5') and fluorescein-dT (3'), EPX-activated RNA-cleaving DNAzyme, selection buffer, RT, no cleavage in buffer alone) amounted to 15 % cleavage.
